To fix the notation:
B1: Protein Vpx (Simian immunodeficiency virus (isolate PBj14/BCL-3)), P19508 (parent)
chain: MSDPRERIPPGNSGEETIGEAFDWLDRTVEEINRAAVNHLPRELIFQVWRRSWEYWHDEMGMSVSYTKYRYLCLIQKAMFMHCKKGCRCLGGEHGAGGWRPGPPPPPPPGLA
B2: Protein Vpx (Human immunodeficiency virus type 2 subtype A (isolate Ghana-1)), P18045 (parent)
chain: MTDPRERVPPGNSGEETIGEAFEWLDRTIEALNREAVNHLPRELIFQVWQRSWRYWHDDQGMSPSYTKYRYLCLMQKAVFIHFKRGCTCLGGGHGPGGWRSGPPPPPPPGLV

Experimental findings from IntAct's records for PubMed 19264781 are described below.

The variants in one assay derive from B1. Conditions: with dcaf1_human DCAF1, Q9Y4B6.
Target sequence in this assay (Q9Y4B6 whole entry): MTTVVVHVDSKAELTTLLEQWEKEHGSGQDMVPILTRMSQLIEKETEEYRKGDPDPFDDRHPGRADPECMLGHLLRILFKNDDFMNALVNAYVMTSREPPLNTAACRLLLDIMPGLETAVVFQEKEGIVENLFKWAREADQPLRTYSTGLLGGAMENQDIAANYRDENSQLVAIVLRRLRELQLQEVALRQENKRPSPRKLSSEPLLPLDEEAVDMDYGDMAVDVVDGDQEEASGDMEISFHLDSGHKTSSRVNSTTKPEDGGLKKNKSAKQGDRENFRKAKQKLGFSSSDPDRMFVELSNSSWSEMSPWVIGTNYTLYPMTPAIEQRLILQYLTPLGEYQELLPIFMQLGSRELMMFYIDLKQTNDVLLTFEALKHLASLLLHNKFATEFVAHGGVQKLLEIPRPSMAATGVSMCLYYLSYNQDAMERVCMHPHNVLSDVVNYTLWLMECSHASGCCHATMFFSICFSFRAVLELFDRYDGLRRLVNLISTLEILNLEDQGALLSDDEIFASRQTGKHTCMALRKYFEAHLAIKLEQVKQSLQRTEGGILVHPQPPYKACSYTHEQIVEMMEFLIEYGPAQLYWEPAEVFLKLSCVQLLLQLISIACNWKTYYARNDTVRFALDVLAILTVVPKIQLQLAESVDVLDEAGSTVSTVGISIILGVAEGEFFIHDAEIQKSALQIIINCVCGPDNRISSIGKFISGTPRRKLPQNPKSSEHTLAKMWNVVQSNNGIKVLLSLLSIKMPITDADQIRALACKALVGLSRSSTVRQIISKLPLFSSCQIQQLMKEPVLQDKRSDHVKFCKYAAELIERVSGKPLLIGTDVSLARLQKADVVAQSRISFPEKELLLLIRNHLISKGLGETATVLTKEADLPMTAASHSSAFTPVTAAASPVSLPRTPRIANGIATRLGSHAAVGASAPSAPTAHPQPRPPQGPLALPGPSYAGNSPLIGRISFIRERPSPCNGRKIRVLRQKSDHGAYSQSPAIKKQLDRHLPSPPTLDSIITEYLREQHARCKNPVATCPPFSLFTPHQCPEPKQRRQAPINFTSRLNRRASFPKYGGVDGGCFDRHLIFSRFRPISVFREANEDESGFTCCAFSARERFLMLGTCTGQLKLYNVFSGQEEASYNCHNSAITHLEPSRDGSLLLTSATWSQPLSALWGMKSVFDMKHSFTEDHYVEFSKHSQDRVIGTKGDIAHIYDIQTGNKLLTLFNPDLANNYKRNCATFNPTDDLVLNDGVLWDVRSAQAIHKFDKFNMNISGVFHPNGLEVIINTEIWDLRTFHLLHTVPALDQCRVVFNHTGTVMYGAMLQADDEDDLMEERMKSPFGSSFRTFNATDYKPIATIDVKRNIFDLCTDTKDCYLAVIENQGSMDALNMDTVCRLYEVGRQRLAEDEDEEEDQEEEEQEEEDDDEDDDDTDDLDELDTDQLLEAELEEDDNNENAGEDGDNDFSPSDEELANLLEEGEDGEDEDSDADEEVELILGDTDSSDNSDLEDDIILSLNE
Turning to MSDPRERIPPGNSGEETIGEAFDWLDRTVEEINRAAVNHLPRELIFQVWRRSWEYWHDEMGMSVSYTKYRYLCLIQAAMFMHCKKGCRCLGGEHGAGGWRPGPPPPPPPGLA [K77A], the “effect of a mutation on the interaction” value is “disrupting interaction”.

In a further assay the parent is B1. The conditions noted are these: with dcaf1_human DCAF1, Q9Y4B6. This is another data set of the same source.
Target sequence in this assay (Q9Y4B6 whole entry): as the sequence (Q9Y4B6 whole entry) above
For the variant MSDPRERIPPGNSGEETIGEAFDWLDRTVEEINRAAVNHLPRELIFQVWRRSWEYWHDEMGMSVSYTKYRYLCLIRKAMFMHCKKGCRCLGGEHGAGGWRPGPPPPPPPGLA [Q76R], the “effect of a mutation on the interaction” value is on record as “disrupting interaction”.

The variants in another assay derive from B2. The conditions noted are these: with dcaf1_human DCAF1, Q9Y4B6.
Target sequence in this assay (Q9Y4B6 whole entry): as the sequence (Q9Y4B6 whole entry) above
Turning to MTDPRERVPPGNSGEETIGEAFEWLDRTIEALNREAVNHLPRELIFQVWQRSWRYWHDDQGMSPSYTKYRYLCLMRKAVFIHFKRGCTCLGGGHGPGGWRSGPPPPPPPGLV [Q76R], the “effect of a mutation on the interaction” value was “disrupting interaction”.
